Here are results for two substances from patent publication US20220402981A1.

A value given as a limit tells only on which side of the number the result lay.

For experiment [1], the target named is DDB1ΔB-DCAF15biotin (human) (UniProt Q16531). In words: TR-FRET dimerization assay; the compound E7820 is titrated (EC50 is of the compound) to DDB1ΔB-DCAF15 in the presence of BodipyFL-RBM23RRM2-WT, FIG. 5E.
For experiment [2] the target is unchanged. In words: TR-FRET, BodipyFL-RBM39RRM2 titrated to DDB1ΔB-DCAF15biotin in the presence of tasisulam at 50 µM; apparent KD. (Time-resolved FRET reads energy transfer from a long-lived donor to a nearby acceptor.)
For experiment [3] the target is unchanged. The experiment in a line: TR-FRET dimerization assay; the compound tasisulam is titrated (EC50 is of the compound), both proteins at 200 nM, FIG. 7F.
Experiment [4] has as its target DDB1ΔB-DCAF15biotin-DDA1 (human) (UniProt Q16531). The experiment in a line: TR-FRET, BodipyFL-RBM39RRM2 titrated to DDB1ΔB-DCAF15biotin-DDA1 in the presence of E7820 (50 µM), FIG. 3C; apparent KD.
Experiment [5] shares this target. In words: TR-FRET with E7820; DDB1-DCAF15-DDA1 against DDB1-DCAF15.
Experiment [6] addresses DDB1ΔB-DCAF15biotin (human) (UniProt Q16531). In words: TR-FRET dimerization assay; the compound indisulam is titrated (EC50 is of the compound), both proteins at 200 nM, FIG. 7F.
The target is the same in experiment [7]. In words: TR-FRET, BodipyFL-RBM39RRM2 titrated to DDB1ΔB-DCAF15biotin in the presence of E7820 at 50 µM; apparent KD.
Experiment [8] has the same target. The experiment in a line: TR-FRET, BodipyFL-RBM39RRM2 titrated to DDB1ΔB-DCAF15biotin in the presence of indisulam at 50 µM; apparent KD.
For experiment [9] the target is unchanged. The experiment in a line: TR-FRET, BodipyFL-RBM39RRM2 titrated to DDB1ΔB-DCAF15biotin in the presence of E7820 (50 µM), FIG. 3C; apparent KD.
Experiment [10] has the same target. In words: TR-FRET dimerization assay; the compound E7820 is titrated (EC50 is of the compound), both proteins at 200 nM, FIG. 7F.
The target in experiment [11] is DDB1ΔB-DCAF15biotin-DDA1 (human) (UniProt Q16531). The experiment in a line: TR-FRET dimerization assay; the compound E7820 is titrated (EC50 is of the compound) to DDB1ΔB-DCAF15biotin-DDA1 and BodipyFL-RBM39RRM2, FIG. 3D.

BodipyFL-RBM39RRM2, sequence (Q14498 245-332): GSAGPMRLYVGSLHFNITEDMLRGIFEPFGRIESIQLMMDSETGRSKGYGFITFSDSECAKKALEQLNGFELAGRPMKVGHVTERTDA

With “BodipyFL-RBM23RRM2-WT (from UniProt Q86U06 263-341)”, the EC50 (commonly the concentration at which the effect is half-maximal) in [1] turned out to be 1000 nM.

In the case of “BodipyFL-RBM39RRM2 (from UniProt Q14498 245-332)”, the Kd in [2] was found to be 3500 nM; in experiment [4], 620 nM; in experiment [7] it was 2000 nM; in experiment [8] it was 2100 nM; in experiment [9] it was 1900 nM. Further, the EC50 in experiment [3] was > 10000 nM; in [6], 3200 nM; in experiment [10], 740 nM; in experiment [11] it was 330 nM. Moreover, in experiment [5], the fold strengthening of apparent affinity against the complex without DDA1 stood at 3 fold.
